Measured values: the supplement of paper PMC10065799, “High-throughput profiling of sequence recognition by tyrosine kinases and SH2 domains using bacterial peptide display” (eLife, 2023)

The sequences below were run against Grb2 SH2 (UniProt P62993) (assay: SH2 binding enrichment of the phosphorylated peptide, bacterial display (enrichment ratio); higher = better substrate or ligand; peptides without Tyr show the background).
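Wherever SH2 binding enrichment of the phosphorylated peptide, bacterial display is given: peptide library displayed on the E. coli surface as eCPX fusions, selected cells deep-sequenced, score is each peptide's frequency after selection divided by its frequency in the input.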
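Wherever phosphorylation enrichment, bacterial display is given: 11-residue human phosphosite peptides and single-mutation variants displayed on the E. coli surface, counted by deep sequencing, each peptide's frequency after selection divided by its frequency in the unselected input library; frequency after pTyr selection over input frequency; kinase dosed for 20-30% of maximal phosphorylation in three min.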

Grb2 SH2, sequence (P62993 whole entry, looked up, the tested form may be a part): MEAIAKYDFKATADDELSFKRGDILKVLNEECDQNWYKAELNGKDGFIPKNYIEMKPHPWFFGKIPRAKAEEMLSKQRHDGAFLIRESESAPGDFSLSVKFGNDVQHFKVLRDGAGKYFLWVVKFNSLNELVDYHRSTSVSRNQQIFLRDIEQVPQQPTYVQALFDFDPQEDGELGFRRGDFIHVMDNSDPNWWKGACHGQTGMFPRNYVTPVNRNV

| Sequence | SH2 binding enrichment |
| --- | --- |
| HDRGNYVQLNM [RECQL4_Y353_R355Q] | 0.986 |
| QGIIIYRAAYF [SLC25A4_Y187] | 1.01 |
| LKDEDYLKDTV [HAUS3_Y582_I586T] | 0.708 |
| EGLKVYVNGTL [ADGRD1_Y183] | 1.68 |
| PLRADYLIARV [HLCS_Y635] | 0.896 |
| DRLASYLDKAR [KRT14_Y129_V133A] | 0.874 |
| GRLPEYNTPIA [CCDC151_Y542_R545P] | 0.807 |
| SSQILYKLEQS [THADA_Y701_V699I] | 1 |
| EEKSCYILHSS [PATJ_Y783_E780K] | 0.805 |
| LEDEVCAQKMK [TPM2_Y261_Y261C] | 1.02 |
| TFLRTYTDTMQ [TSPAN7_Y124_A127T] | 0.995 |
| SKKSTYRALLD [GANC_Y43_Q44R] | 0.651 |
| QLHREYCLSPR [HJURP_Y445] | 1.09 |
| TLNVRYESVQA [CEACAM7_Y236] | 0.9 |
| SNKLHYQLEQE [PDPR_Y110_Y109H] | 1.01 |
| GREAEYSEKHG [EPHB4_Y574_D576E] | 0.742 |
| AEPTGYSAELS [EZR_Y499] | 0.721 |

| Sequence | SH2 binding enrichment |
| --- | --- |
| VHSGTYQVTVR [MYBPC3_Y1043] | 0.725 |
| PYAEPYADYGG [APBA1_Y187_S184A] | 0.836 |
| ARTNEYKIIRS [INA_Y87_T92S] | 1.06 |
| FFHCTYKQRMI [CLEC12A_Y242_K244Q_YF] | 1.27 |
| HVIKFYGACSQ [RET_Y791_L790F] | 0.833 |
| ANNPLYKEATS [ITGB3_Y773] | 1.04 |
| KLKNAYEESLE [MYH7_Y1488] | 0.531 |
| EFENSYIFDIN [GAB1_Y83] | 0.82 |
| LQIPMYEVQWK [KIT_Y553_K550I] | 0.884 |
| PELINYHQHYS [BTK_Y361_N365Y] | 1.08 |
| WQQQSYLASGI [CTNNB1_Y30_D32A] | 0.822 |
| CKLCQYYLDHL [ATRX_Y1849_Y1847C] | 1.54 |
| HKLSYCEYDFE [BTK_Y40_Y40C] | 1.3 |
| NELTYYCYKKD [CD59_Y87_C89Y] | 0.728 |
| PVGDVYKKKGL [NMNAT1_Y55_A54V] | 0.837 |
| DAANNYARGHF [TUBA3E_Y103_S101N_YF] | 0.665 |

Each sequence was assayed against c-Src SH2 in the same assay as above.

| Sequence | SH2 binding enrichment |
| --- | --- |
| HDRGNYVQLNM [RECQL4_Y353_R355Q] | 1.95 |
| QGIIIYRAAYF [SLC25A4_Y187] | 0.515 |
| LKDEDYLKDTV [HAUS3_Y582_I586T] | 0.478 |
| EGLKVYVNGTL [ADGRD1_Y183] | 0.502 |
| PLRADYLIARV [HLCS_Y635] | 0.46 |
| DRLASYLDKAR [KRT14_Y129_V133A] | 0.419 |
| GRLPEYNTPIA [CCDC151_Y542_R545P] | 0.841 |
| SSQILYKLEQS [THADA_Y701_V699I] | 0.537 |
| EEKSCYILHSS [PATJ_Y783_E780K] | 0.628 |
| LEDEVCAQKMK [TPM2_Y261_Y261C] | 0.967 |
| TFLRTYTDTMQ [TSPAN7_Y124_A127T] | 0.591 |
| SKKSTYRALLD [GANC_Y43_Q44R] | 0.465 |
| QLHREYCLSPR [HJURP_Y445] | 1 |
| TLNVRYESVQA [CEACAM7_Y236] | 7.18 |
| SNKLHYQLEQE [PDPR_Y110_Y109H] | 0.72 |
| GREAEYSEKHG [EPHB4_Y574_D576E] | 0.442 |
| AEPTGYSAELS [EZR_Y499] | 0.457 |

| Sequence | SH2 binding enrichment |
| --- | --- |
| VHSGTYQVTVR [MYBPC3_Y1043] | 0.567 |
| PYAEPYADYGG [APBA1_Y187_S184A] | 7.71 |
| ARTNEYKIIRS [INA_Y87_T92S] | 0.514 |
| FFHCTYKQRMI [CLEC12A_Y242_K244Q_YF] | 0.902 |
| HVIKFYGACSQ [RET_Y791_L790F] | 0.546 |
| ANNPLYKEATS [ITGB3_Y773] | 0.53 |
| KLKNAYEESLE [MYH7_Y1488] | 0.654 |
| EFENSYIFDIN [GAB1_Y83] | 0.581 |
| LQIPMYEVQWK [KIT_Y553_K550I] | 0.661 |
| PELINYHQHYS [BTK_Y361_N365Y] | 0.658 |
| WQQQSYLASGI [CTNNB1_Y30_D32A] | 0.52 |
| CKLCQYYLDHL [ATRX_Y1849_Y1847C] | 1.39 |
| HKLSYCEYDFE [BTK_Y40_Y40C] | 0.914 |
| NELTYYCYKKD [CD59_Y87_C89Y] | 0.482 |
| PVGDVYKKKGL [NMNAT1_Y55_A54V] | 0.55 |
| DAANNYARGHF [TUBA3E_Y103_S101N_YF] | 0.531 |

What follows are sequences tested against SHP2-C SH2 in the same assay as above.

| Sequence | SH2 binding enrichment |
| --- | --- |
| HDRGNYVQLNM [RECQL4_Y353_R355Q] | 1.18 |
| QGIIIYRAAYF [SLC25A4_Y187] | 0.642 |
| LKDEDYLKDTV [HAUS3_Y582_I586T] | 0.501 |
| EGLKVYVNGTL [ADGRD1_Y183] | 0.757 |
| PLRADYLIARV [HLCS_Y635] | 0.711 |
| DRLASYLDKAR [KRT14_Y129_V133A] | 0.59 |
| GRLPEYNTPIA [CCDC151_Y542_R545P] | 0.479 |
| SSQILYKLEQS [THADA_Y701_V699I] | 0.533 |
| EEKSCYILHSS [PATJ_Y783_E780K] | 0.893 |
| LEDEVCAQKMK [TPM2_Y261_Y261C] | 1.38 |
| TFLRTYTDTMQ [TSPAN7_Y124_A127T] | 0.454 |
| SKKSTYRALLD [GANC_Y43_Q44R] | 0.688 |
| QLHREYCLSPR [HJURP_Y445] | 1.17 |
| TLNVRYESVQA [CEACAM7_Y236] | 1.52 |
| SNKLHYQLEQE [PDPR_Y110_Y109H] | 0.783 |
| GREAEYSEKHG [EPHB4_Y574_D576E] | 0.476 |
| AEPTGYSAELS [EZR_Y499] | 0.525 |

| Sequence | SH2 binding enrichment |
| --- | --- |
| VHSGTYQVTVR [MYBPC3_Y1043] | 0.64 |
| PYAEPYADYGG [APBA1_Y187_S184A] | 0.695 |
| ARTNEYKIIRS [INA_Y87_T92S] | 0.859 |
| FFHCTYKQRMI [CLEC12A_Y242_K244Q_YF] | 1.07 |
| HVIKFYGACSQ [RET_Y791_L790F] | 0.773 |
| ANNPLYKEATS [ITGB3_Y773] | 0.913 |
| KLKNAYEESLE [MYH7_Y1488] | 0.761 |
| EFENSYIFDIN [GAB1_Y83] | 0.854 |
| LQIPMYEVQWK [KIT_Y553_K550I] | 1.06 |
| PELINYHQHYS [BTK_Y361_N365Y] | 1.07 |
| WQQQSYLASGI [CTNNB1_Y30_D32A] | 0.588 |
| CKLCQYYLDHL [ATRX_Y1849_Y1847C] | 1.67 |
| HKLSYCEYDFE [BTK_Y40_Y40C] | 0.68 |
| NELTYYCYKKD [CD59_Y87_C89Y] | 0.505 |
| PVGDVYKKKGL [NMNAT1_Y55_A54V] | 0.748 |
| DAANNYARGHF [TUBA3E_Y103_S101N_YF] | 0.823 |

These sequences were tested against Fes (UniProt P07332) (assay: phosphorylation enrichment, bacterial display (enrichment ratio); higher = better substrate or ligand; peptides without Tyr show the background).
Fes, sequence (P07332 whole entry, looked up): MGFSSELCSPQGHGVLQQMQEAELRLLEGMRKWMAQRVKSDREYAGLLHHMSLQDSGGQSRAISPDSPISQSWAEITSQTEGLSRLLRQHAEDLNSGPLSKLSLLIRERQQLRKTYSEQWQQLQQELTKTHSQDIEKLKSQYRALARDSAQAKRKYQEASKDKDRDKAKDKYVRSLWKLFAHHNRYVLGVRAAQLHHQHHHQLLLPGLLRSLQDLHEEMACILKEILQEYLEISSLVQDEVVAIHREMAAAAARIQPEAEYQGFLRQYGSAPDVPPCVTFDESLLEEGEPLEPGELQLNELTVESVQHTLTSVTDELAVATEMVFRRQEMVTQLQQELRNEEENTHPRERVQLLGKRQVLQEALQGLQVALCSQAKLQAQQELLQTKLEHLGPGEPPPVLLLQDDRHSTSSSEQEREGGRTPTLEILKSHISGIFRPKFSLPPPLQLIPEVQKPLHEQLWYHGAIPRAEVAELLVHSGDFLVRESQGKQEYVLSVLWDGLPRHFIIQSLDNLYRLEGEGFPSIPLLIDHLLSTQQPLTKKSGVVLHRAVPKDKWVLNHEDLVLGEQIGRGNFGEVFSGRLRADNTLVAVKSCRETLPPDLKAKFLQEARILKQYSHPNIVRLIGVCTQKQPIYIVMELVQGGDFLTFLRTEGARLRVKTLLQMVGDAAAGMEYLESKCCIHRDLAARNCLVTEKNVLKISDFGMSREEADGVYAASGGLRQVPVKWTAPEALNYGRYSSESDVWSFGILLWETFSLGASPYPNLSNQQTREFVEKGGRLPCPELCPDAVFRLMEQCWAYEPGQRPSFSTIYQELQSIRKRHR

| Sequence | phosphorylation enrichment |
| --- | --- |
| HDRGNYVQLNM [RECQL4_Y353_R355Q] | 1.1 |
| QGIIIYRAAYF [SLC25A4_Y187] | 1.91 |
| LKDEDYLKDTV [HAUS3_Y582_I586T] | 3.04 |
| EGLKVYVNGTL [ADGRD1_Y183] | 1.33 |
| PLRADYLIARV [HLCS_Y635] | 1.1 |
| DRLASYLDKAR [KRT14_Y129_V133A] | 0.634 |
| GRLPEYNTPIA [CCDC151_Y542_R545P] | 0.643 |
| SSQILYKLEQS [THADA_Y701_V699I] | 0.781 |
| EEKSCYILHSS [PATJ_Y783_E780K] | 1.22 |
| LEDEVCAQKMK [TPM2_Y261_Y261C] | 2.03 |
| TFLRTYTDTMQ [TSPAN7_Y124_A127T] | 0.76 |
| SKKSTYRALLD [GANC_Y43_Q44R] | 0.655 |
| QLHREYCLSPR [HJURP_Y445] | 1.12 |
| TLNVRYESVQA [CEACAM7_Y236] | 0.745 |
| SNKLHYQLEQE [PDPR_Y110_Y109H] | 1 |
| GREAEYSEKHG [EPHB4_Y574_D576E] | 0.697 |
| AEPTGYSAELS [EZR_Y499] | 1.01 |

| Sequence | phosphorylation enrichment |
| --- | --- |
| VHSGTYQVTVR [MYBPC3_Y1043] | 0.586 |
| PYAEPYADYGG [APBA1_Y187_S184A] | 3.07 |
| ARTNEYKIIRS [INA_Y87_T92S] | 0.563 |
| FFHCTYKQRMI [CLEC12A_Y242_K244Q_YF] | 1.28 |
| HVIKFYGACSQ [RET_Y791_L790F] | 1.75 |
| ANNPLYKEATS [ITGB3_Y773] | 0.53 |
| KLKNAYEESLE [MYH7_Y1488] | 1.14 |
| EFENSYIFDIN [GAB1_Y83] | 1.16 |
| LQIPMYEVQWK [KIT_Y553_K550I] | 2.04 |
| PELINYHQHYS [BTK_Y361_N365Y] | 0.688 |
| WQQQSYLASGI [CTNNB1_Y30_D32A] | 0.754 |
| CKLCQYYLDHL [ATRX_Y1849_Y1847C] | 0.779 |
| HKLSYCEYDFE [BTK_Y40_Y40C] | 1.76 |
| NELTYYCYKKD [CD59_Y87_C89Y] | 1.51 |
| PVGDVYKKKGL [NMNAT1_Y55_A54V] | 0.557 |
| DAANNYARGHF [TUBA3E_Y103_S101N_YF] | 0.652 |
